Data published in patent US20260209317A1 (US Dept. of Health and Human Services, published 2026).
Like-named read-outs stand apart in the source and are kept apart here.

Assays:
[1] = target: T1, SARS-CoV-2 Omicron BA.4.6 spike protein (on pseudotyped lentivirus) (SARS-CoV-2); experiment: cell-based or functional assay
[2] = target: T2, SARS-CoV-2 B.1.1.7 spike protein (on pseudotyped lentivirus) (SARS-CoV-2); experiment: cell-based or functional assay
[3] = target: T3, SARS-CoV-2 Omicron BA.2.75.2 spike protein (on pseudotyped lentivirus) (SARS-CoV-2); experiment: cell-based or functional assay
[4] = target: T4, SARS-CoV-2 B.1.617.2 spike protein (on pseudotyped lentivirus) (SARS-CoV-2); experiment: cell-based or functional assay
[5] = target: T5, SARS-CoV-2 Omicron BJ.1 spike protein (on pseudotyped lentivirus) (SARS-CoV-2, UniProt P0DTC2 14-1273); experiment: cell-based or functional assay
[6] = target: T6, SARS-CoV-2 B.1.351 spike protein (on pseudotyped lentivirus) (SARS-CoV-2); experiment: cell-based or functional assay
[7] = target: T7, SARS-CoV-2 Omicron BA.4/BA.5 spike protein (on pseudotyped lentivirus) (SARS-CoV-2, UniProt P0DTC2 14-1273); experiment: cell-based or functional assay
[8] = target: T8, SARS-CoV-2 Omicron BA.2.75 spike protein (on pseudotyped lentivirus) (SARS-CoV-2, UniProt P0DTC2 14-1273); experiment: cell-based or functional assay
[9] = target: T9, SARS-CoV-2 P.1 spike protein (on pseudotyped lentivirus) (SARS-CoV-2); experiment: cell-based or functional assay
[10] = target: T10, SARS-CoV-2 Omicron BA.2 spike protein (on pseudotyped lentivirus) (SARS-CoV-2); experiment: cell-based or functional assay
[11] = target: T11, SARS-CoV-2 Omicron XBB spike protein (on pseudotyped lentivirus) (SARS-CoV-2, UniProt P0DTC2 14-1273); experiment: cell-based or functional assay
[12] = target: T12, SARS-CoV-2 D614G spike protein (on pseudotyped lentivirus) (SARS-CoV-2, UniProt P0DTC2 14-1273); experiment: cell-based or functional assay
[13] = target: T13, SARS-CoV-2 Omicron BQ.1.1 spike protein (on pseudotyped lentivirus) (SARS-CoV-2, UniProt P0DTC2 14-1273); experiment: cell-based or functional assay
[14] = target: SARS-CoV-2 omicron-BA.1 RBD protein (SARS-CoV-2, UniProt P0DTC2 319-541)
[15] = target: T1, SARS-CoV-2 Omicron BA.4.6 spike protein …; experiment: cell-based or functional assay; remark: listed apart in the source
[16] = target: T2, SARS-CoV-2 B.1.1.7 spike protein (on …); experiment: cell-based or functional assay; remark: listed apart in the source
[17] = target: T3, SARS-CoV-2 Omicron BA.2.75.2 spike …; experiment: cell-based or functional assay; remark: listed apart in the source
[18] = target: T4, SARS-CoV-2 B.1.617.2 spike protein (on …); experiment: cell-based or functional assay; remark: listed apart in the source
[19] = target: T5, SARS-CoV-2 Omicron BJ.1 spike protein …; experiment: cell-based or functional assay; remark: listed apart in the source
[20] = target: T6, SARS-CoV-2 B.1.351 spike protein (on …); experiment: cell-based or functional assay; remark: listed apart in the source
[21] = target: T7, SARS-CoV-2 Omicron BA.4/BA.5 spike …; experiment: cell-based or functional assay; remark: listed apart in the source
[22] = target: T8, SARS-CoV-2 Omicron BA.2.75 spike …; experiment: cell-based or functional assay; remark: listed apart in the source
[23] = target: T9, SARS-CoV-2 P.1 spike protein (on …); experiment: cell-based or functional assay; remark: listed apart in the source
[24] = target: T10, SARS-CoV-2 Omicron BA.2 spike protein …; experiment: cell-based or functional assay; remark: listed apart in the source
[25] = target: T11, SARS-CoV-2 Omicron XBB spike protein …; experiment: cell-based or functional assay; remark: listed apart in the source
[26] = target: T12, SARS-CoV-2 D614G spike protein (on …); experiment: cell-based or functional assay; remark: listed apart in the source
[27] = target: T13, SARS-CoV-2 Omicron BQ.1.1 spike protein …; experiment: cell-based or functional assay; remark: listed apart in the source

B1: B2-269.1 (antibody, V domains shown)
VH: EVQLVESGGGLVQPGGSLRLSCAASGITVSSNYMSWVRQPPGKGLDWVSLIFSGGSTYYADSVKGRFTISRDNSKNTLYLQMNSLRAEDTAVYYCARVGVAVAGTDYDIWGQGTMVTVSS
VL: DIQMTQSPSSLSASVGDRVTITCQASQDINKYLNWYQQKPGKAPKLLIYDASNLETGVPSRFSGSGSGTDFTFTISSLQPEDIATYYCLHYENLPLSFGGGTKVEIK
- neutralization IC50 [1]: < 0.1 µg/mL
- neutralization IC50 [2]: < 0.1 µg/mL
- neutralization IC50 [3]: < 1.1 µg/mL
- neutralization IC50 [4]: < 0.1 µg/mL
- neutralization IC50 [5]: < 0.1 µg/mL
- neutralization IC50 [6]: < 0.1 µg/mL
- neutralization IC50 [7]: < 0.1 µg/mL
- neutralization IC50 [8]: < 1.1 µg/mL
- neutralization IC50 [9]: < 0.1 µg/mL
- neutralization IC50 [10]: < 0.1 µg/mL
- neutralization IC50 [11]: < 1.1 µg/mL
- neutralization IC50 [12]: < 0.1 µg/mL
- neutralization IC50 [13]: < 0.1 µg/mL
- EC50 (read off the curve) [14]: ~0.04 µg/mL
- neutralization IC50 [15]: 0.011 µg/mL
- neutralization IC80 [15]: 0.031 µg/mL
- neutralization IC50 [16]: 0.02 µg/mL
- neutralization IC80 [16]: 0.034 µg/mL
- neutralization IC50 [17]: 0.709 µg/mL
- neutralization IC80 [17]: 2.5 µg/mL
- neutralization IC50 [18]: 0.028 µg/mL
- neutralization IC80 [18]: 0.054 µg/mL
- neutralization IC50 [19]: 0.001 µg/mL
- neutralization IC80 [19]: 0.008 µg/mL
- neutralization IC50 [20]: 0.007 µg/mL
- neutralization IC80 [20]: 0.022 µg/mL
- neutralization IC50 [21]: 0.013 µg/mL
- neutralization IC80 [21]: 0.036 µg/mL
- neutralization IC50 [22]: 1.14 µg/mL
- neutralization IC80 [22]: 3.54 µg/mL
- neutralization IC50 [23]: 0.01 µg/mL
- neutralization IC80 [23]: 0.025 µg/mL
- neutralization IC50 [24]: 0.01 µg/mL
- neutralization IC80 [24]: 0.032 µg/mL
- neutralization IC50 [25]: 0.179 µg/mL
- neutralization IC80 [25]: 3.56 µg/mL
- neutralization IC50 [26]: 0.017 µg/mL
- neutralization IC80 [26]: 0.039 µg/mL
- neutralization IC50 [27]: 0.126 µg/mL
- neutralization IC80 [27]: 0.576 µg/mL
